Patent US20160194394A1 (GOVERNING COUNCIL OF THE UNIVERSITY OF TORONTO, published 2016)
Like-named read-outs stand apart in the source and are kept apart here. Each block holds one binder with its values, some of them ahead of it.

Assays:
[1] = biological target: T1, recombinant Frizzled receptor 7 (FZD7) cysteine-rich domain (CRD) fused to the Fc region of human IgG (human, UniProt O75084 33-185); assay: competitive ELISA, detected phage-Fab D10
[2] = biological target: T1, recombinant Frizzled receptor 7 (FZD7) …; assay: competitive ELISA, detected phage-Fab H1
[3] = biological target: T1, recombinant Frizzled receptor 7 (FZD7) …; assay: ELISA, 1ug/ml (20nM) Fab [cont'd]
Method in brief: (§1)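 Plates coated with 2 ug/ml FZD7-Fc or Fc protein were probed with bacterially expressed purified Fabs for 1 h at room temperature in 0.5% BSA/0.05% Tween20/PBS. Bound Fab detected with anti-FLAG-HRP for 45 min, developed with TMB and acid stop, and read as absorbance at 450 nm; n.t. = not tested.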

[4] = biological target: T1, recombinant Frizzled receptor 7 (FZD7) …; assay: competitive ELISA, detected phage-Fab H3
[5] = biological target: T1, recombinant Frizzled receptor 7 (FZD7) …; assay: competitive ELISA, detected phage-Fab G6
[6] = biological target: T2, FZD7 receptor expressed on cells (full-length) (UniProt O75084 33-574, limits assumed); assay: cell-based or functional assay
[7] = biological target: T1, recombinant Frizzled receptor 7 (FZD7) …; assay: competitive ELISA, detected phage-Fab A1
[8] = biological target: T1, recombinant Frizzled receptor 7 (FZD7) …; assay: competitive ELISA, detected phage-Fab E4
[9] = biological target: T2, FZD7 receptor expressed on cells …; assay: flow cytometry, 200 nM Fab, FZD7 over-expression line (MDA MB 231) [cont'd]
Method in brief: (§2)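 EDTA-harvested MDA MB 231 cells, either FZD7-overexpressing or with endogenous receptor, were blocked in 2% FBS/PBS and stained with Fab for 30 min on ice. Detection used anti-F(ab′)₂-APC (1:1000, 15 min on ice), then 1% paraformaldehyde fixation and flow cytometry. Values are percent of cells in positive gates.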

[10] = biological target: T1, recombinant Frizzled receptor 7 (FZD7) …; assay: competitive ELISA, detected phage-Fab E8
[11] = biological target: T2, FZD7 receptor expressed on cells …; assay: flow cytometry, 200 nM Fab, MDA MB 231 [cont'd]
Method in brief: as §2

human Fzd1-Fc = biological target: T3, human Fzd1-Fc; assay: SPR
T3 construct: also called FZD1 ECD; Fzd1 CRD-Fc fusion protein (R&D systems); not shown: exact vendor limits of the CRD construct
T3 sequence (chain, as listed by the source limits assumed): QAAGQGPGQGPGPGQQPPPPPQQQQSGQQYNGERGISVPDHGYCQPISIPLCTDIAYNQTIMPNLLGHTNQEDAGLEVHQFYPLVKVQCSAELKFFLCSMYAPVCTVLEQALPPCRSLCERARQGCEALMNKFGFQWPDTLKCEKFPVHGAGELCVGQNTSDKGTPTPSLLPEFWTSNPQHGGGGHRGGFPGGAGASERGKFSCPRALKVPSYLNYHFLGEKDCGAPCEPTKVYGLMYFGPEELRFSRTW

human Fzd5-Fc = biological target: T4, human Fzd5-Fc; assay: SPR
T4 construct: also called FZD5 ECD; Fzd5 CRD-Fc fusion protein (R&D systems); not shown: exact vendor limits of the CRD construct
T4 chain: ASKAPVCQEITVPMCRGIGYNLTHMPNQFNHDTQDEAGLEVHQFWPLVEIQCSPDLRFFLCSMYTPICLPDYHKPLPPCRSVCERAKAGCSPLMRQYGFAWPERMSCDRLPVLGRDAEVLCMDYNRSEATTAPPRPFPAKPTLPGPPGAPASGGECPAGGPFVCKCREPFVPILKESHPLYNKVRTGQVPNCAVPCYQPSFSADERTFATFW

[12] = biological target: T1, recombinant Frizzled receptor 7 (FZD7) …; assay: SPR
human Fzd8-Fc = biological target: T5, human Fzd8-Fc; assay: SPR
T5 construct: also called FZD8 ECD; Fzd8 CRD-Fc fusion protein (R&D systems); not shown: exact vendor limits of the CRD construct
T5 chain: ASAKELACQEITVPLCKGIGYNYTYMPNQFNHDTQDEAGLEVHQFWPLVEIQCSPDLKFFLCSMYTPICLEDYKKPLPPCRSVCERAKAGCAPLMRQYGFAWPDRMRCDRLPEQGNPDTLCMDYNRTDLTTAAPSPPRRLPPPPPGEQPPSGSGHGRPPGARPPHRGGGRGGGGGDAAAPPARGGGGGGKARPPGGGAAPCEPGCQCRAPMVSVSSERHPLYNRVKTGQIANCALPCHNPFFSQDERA

FZD4 ECD = biological target: T6, FZD4 ECD; assay: SPR
T6 construct: also called Fzd4 CRD-Fc fusion protein (R&D systems); not shown: exact vendor limits of the CRD construct
T6 chain: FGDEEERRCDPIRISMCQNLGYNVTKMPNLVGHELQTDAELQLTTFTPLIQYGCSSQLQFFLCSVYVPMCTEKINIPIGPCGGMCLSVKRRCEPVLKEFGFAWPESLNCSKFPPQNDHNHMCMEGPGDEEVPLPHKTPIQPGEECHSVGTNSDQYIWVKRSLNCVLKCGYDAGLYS

mouse Fzd2-Fc = biological target: T7, mouse Fzd2-Fc; assay: SPR
T7 construct: also called mFZD2 ECD; Fzd2 CRD-Fc fusion protein (R&D systems); not shown: exact vendor limits of the CRD construct
T7 sequence (chain, as listed by the source limits assumed): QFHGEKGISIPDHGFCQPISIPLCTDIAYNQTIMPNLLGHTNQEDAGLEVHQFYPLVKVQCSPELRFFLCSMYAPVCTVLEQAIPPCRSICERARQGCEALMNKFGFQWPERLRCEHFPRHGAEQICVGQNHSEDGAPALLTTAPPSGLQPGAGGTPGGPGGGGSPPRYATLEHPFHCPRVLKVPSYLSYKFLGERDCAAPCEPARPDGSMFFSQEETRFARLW

[13] = biological target: T1, recombinant Frizzled receptor 7 (FZD7) …; assay: competitive ELISA, detected phage-Fab G2
[14] = biological target: T1, recombinant Frizzled receptor 7 (FZD7) …; assay: ELISA, 10ug/ml (200nM) Fab [cont'd]
Method in brief: as §1

[15] = biological target: T1, recombinant Frizzled receptor 7 (FZD7) …; assay: competitive ELISA, detected phage-Fab H10
[16] = biological target: T1, recombinant Frizzled receptor 7 (FZD7) …; assay: SPR; remark: listed apart in the source
[17] = biological target: T1, recombinant Frizzled receptor 7 (FZD7) …; assay: ELISA, 10ug/ml (200nM) Fab
Method in brief: as §1

[18] = biological target: T2, FZD7 receptor expressed on cells …; assay: flow cytometry, 200 nM Fab, FZD7 over-expression line (MDA MB 231)
Method in brief: as §2

[19] = biological target: T2, FZD7 receptor expressed on cells …; assay: flow cytometry, 200 nM Fab, MDA MB 231
Method in brief: as §2

[20] = biological target: T1, recombinant Frizzled receptor 7 (FZD7) …; assay: ELISA, 1ug/ml (20nM) Fab
Method in brief: as §1

% of Fab phage in presence of 750 nM Fab [1]: 5% | % of Fab phage in presence of 750 nM Fab [2]: 13.7% | OD 450 [3]: 3.22 | % of Fab phage in presence of 750 nM Fab [4]: 15.1% | % of Fab phage in presence of 750 nM Fab [5]: 8.2% | decrease in Wnt 3a-induced transcriptional activity (TOP-FLASH luciferase reporter in MDA MB 231 cells, 400 nM Fab) [6]: > 70% | % of Fab phage in presence of 750 nM Fab [7]: 4.2% | % of Fab phage in presence of 750 nM Fab [8]: 7.3% | % population within the positive gate [9]: 93.1% | % of Fab phage in presence of 750 nM Fab [10]: 6.5% | % population within the positive gate [11]: 98.6% | Kd (human Fzd1-Fc): 1.07 nM | Kd (human Fzd5-Fc): 15.8 nM | Kd [12]: 2.09 nM | Kd (human Fzd8-Fc): 9.31 nM | Kd (FZD4 ECD): 13.3 nM | Kd (mouse Fzd2-Fc): 1.75 nM | % of Fab phage in presence of 750 nM Fab [13]: 4.7% | OD 450 [14]: 3.23 | % of Fab phage in presence of 750 nM Fab [15]: 5.2% | Kd [16]: 2.09 nM | koff [16]: 0.000994 s⁻¹ | kon [16]: 476000 M⁻¹ s⁻¹
B1: Fab A1 (Fab)
chain 1: EVQLVESGGGLVQPGGSLRLSCAASGFNISSYYIHWVRQAPGKGLEWVASIYPYYSSTYYADSVKGRFTISADTSKNTAYLQMNSLRAEDTAVYYCARVWYGAMDYWGQGTLVTVSSASTKGPSVFPLAPSSKSTSGGTAALGCLVKDYFPEPVTVSWNSGALTSGVHTFPAVLQSSGLYSLSSVVTVPSSSLGTQTYICNVNHKPSNTKVDKKVEPKSC
chain 2: DIQMTQSPSSLSASVGDRVTITCRASQSVSSAVAWYQQKPGKAPKLLIYSASSLYSGVPSRFSGSRSGTDFTLTISSLQPEDFATYYCQQYYHPITFGQGTKVEIKRTVAAPSVFIFPPSDSQLKSGTASVVCLLNNFYPREAKVQWKVDNALQSGNSQESVTEQDSKDSTYSLSSTLTLSKADYEKHKVYACEVTHQGLSSPVTKSFNRGECGGS

OD 450 [17]: 3.22 | % of Fab phage in presence of 750 nM Fab [1]: 6.8% | % of Fab phage in presence of 750 nM Fab [2]: 53.5% | % of Fab phage in presence of 750 nM Fab [4]: 27.7% | % of Fab phage in presence of 750 nM Fab [5]: 29.1% | % population within the positive gate [18]: 93.2% | decrease in Wnt 3a-induced transcriptional activity (TOP-FLASH luciferase reporter in MDA MB 231 cells, 400 nM Fab) [6]: > 70% | % population within the positive gate [19]: 99% | % of Fab phage in presence of 750 nM Fab [7]: 21.8% | % of Fab phage in presence of 750 nM Fab [8]: 20.9% | % of Fab phage in presence of 750 nM Fab [10]: 7.1% | Kd (human Fzd1-Fc): 3.67 nM | Kd (human Fzd5-Fc): 3.06 nM | Kd [12]: 1.03 nM | Kd (human Fzd8-Fc): 2.5 nM | Kd (mouse Fzd2-Fc): 0.95 nM | % of Fab phage in presence of 750 nM Fab [13]: 7.4% | % of Fab phage in presence of 750 nM Fab [15]: 7.4% | Kd [16]: 1.03 nM | koff [16]: 0.000548 s⁻¹ | kon [16]: 533000 M⁻¹ s⁻¹ | OD 450 [20]: 3.19
B2: Fab H10 (Fab)
chain 1: EVQLVESGGGLVQPGGSLRLSCAASGFNIYYYSMHWVRQAPGKGLEWVASIYSSYSYTSYADSVKGRFTISADTSKNTAYLQMNSLRAEDTAVYYCARSSPGADYGLDYWGQGTLVTVSSASTKGPSVFPLAPSSKSTSGGTAALGCLVKDYFPEPVTVSWNSGALTSGVHTFPAVLQSSGLYSLSSVVTVPSSSLGTQTYICNVNHKPSNTKVDKKVEPKSC
chain 2: DIQMTQSPSSLSASVGDRVTITCRASQSVSSAVAWYQQKPGKAPKLLIYSASSLYSGVPSRFSGSRSGTDFTLTISSLQPEDFATYYCQQWAYGPFTFGQGTKVEIKRTVAAPSVFIFPPSDSQLKSGTASVVCLLNNFYPREAKVQWKVDNALQSGNSQESVTEQDSKDSTYSLSSTLTLSKADYEKHKVYACEVTHQGLSSPVTKSFNRGECGGS
